{
  "source": "patent US11155596B2",
  "about": "“Polypeptide” (AFFIBODY AB, priority 2016, dated 2021)",
  "key": {"[1]": {"target": "human PD-L1 Fc Chimera (R&D Systems, cat. no. 156-B7-100) (human) (UniProt Q9NZQ7)", "sequence (Q9NZQ7 19-239, change not shown)": "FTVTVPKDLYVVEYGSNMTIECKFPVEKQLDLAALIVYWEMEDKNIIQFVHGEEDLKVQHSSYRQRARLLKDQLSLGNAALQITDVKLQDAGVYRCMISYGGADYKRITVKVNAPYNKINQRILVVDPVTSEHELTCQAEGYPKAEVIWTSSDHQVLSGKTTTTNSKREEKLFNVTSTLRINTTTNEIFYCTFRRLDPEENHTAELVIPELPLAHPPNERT", "test": "ELISA screen, 40 pM hPD-L1"}, "[2]": {"target": "PD-L1 on PD-L1 expressing cells (IFNg-stimulated THP-1 cells; MDA-MB-231 cells) (Homo sapiens (Human)) (UniProt Q9NZQ7)", "test": "FACS, MDA-MB-231 cells, 0.625 µg/ml; negative control (buffer) 69"}, "[3]": {"target": "PD-L1 on PD-L1 expressing cells (IFNg-stimulated THP-1 cells; MDA-MB-231 cells) (Homo sapiens (Human)) (UniProt Q9NZQ7)", "test": "FACS, MDA-MB-231 cells, 1 µg/ml, positive control"}},
  "data": [
    {"substance": "fusion protein ABD with no Z-fusion partner (periplasmic negative control) (from UniProt P19909)", "values": [
      {"measurement": "ELISA response (average)", "setting": "[1]", "result": 0.051, "unit": "AU"}
    ]},
    {"substance": "ipilimumab (Yervoy, Bristol-Myers Squibb, bought) (antibody)", "values": [
      {"measurement": "MFI", "setting": "[2]", "result": 64}
    ]},
    {"substance": "mouse anti-PD-L1 antibody (R&D Systems, cat. no. MAB1561) (tool reagent)", "values": [
      {"measurement": "MFI", "setting": "[3]", "result": 610}
    ]}
  ]
}
